Usually Kd stands for the equilibrium constant for the complex coming apart.

Test in all cases: BLI; biotinylated recombinant human FcγR loaded on SAX (streptavidin) biosensors, antibody in serial dilutions in solution; kinetic buffer 1% casein, 0.2% Tween20, 1x PBS pH 7.4; 30°C; Octet HTX; global fit, 1:1 Langmuir model
In general terms: Biolayer interferometry detects binding as a change in optical thickness at a sensor tip.

In experiment [1] the target is human FcγRIIIa V158 (CD16 V158), biotinylated recombinant protein (human).
The target of experiment [2] is human FcγRIIa R131 (CD32a R131), biotinylated recombinant protein (human).
Experiment [3] addresses human FcγRI (CD64), biotinylated recombinant protein (human) (UniProt P12314).
Experiment [4] addresses human FcγRIIIa F158 (CD16 F158), biotinylated recombinant protein (human) (UniProt P08637).
The target of experiment [5] is human FcγRIIb (CD32b), biotinylated recombinant protein (human) (UniProt P31994).
Experiment [6] has as its target human FcγRIIa H131 (CD32a H131), biotinylated recombinant protein (human) (UniProt P12318).

Sequence of nonfucosylated anti-TIGIT mAb, human IgG1 (SEA-TGT) (antibody; other documents disagree on this pair) (VH): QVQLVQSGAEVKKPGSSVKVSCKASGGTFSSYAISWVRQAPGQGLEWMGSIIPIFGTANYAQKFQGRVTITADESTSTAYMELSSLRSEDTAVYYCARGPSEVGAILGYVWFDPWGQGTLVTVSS
Sequence of nonfucosylated anti-TIGIT mAb, human IgG1 (SEA-TGT) (antibody; other documents disagree on this pair) (VL): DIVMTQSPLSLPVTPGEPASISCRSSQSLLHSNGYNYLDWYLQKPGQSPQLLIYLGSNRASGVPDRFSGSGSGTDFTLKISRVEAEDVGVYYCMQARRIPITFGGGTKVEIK
Sequence of nonfucosylated anti-TIGIT mAb, human IgG1 (SEA-TGT) (antibody) (VH): as the sequence (VH) above
Sequence of nonfucosylated anti-TIGIT mAb, human IgG1 (SEA-TGT) (antibody) (VL): as the sequence (VL) above

Turning to “anti-TIGIT mAb, human IgG1 S239D/A330L/I332E (DLE-TGT) (antibody)”, the Kd turned out to be 60 nM in experiment [1] and 1560 nM in experiment [2].

For the substance “nonfucosylated anti-TIGIT mAb, human IgG1 (SEA-TGT) (antibody; other documents disagree on this pair)”, the Kd in experiment [3] turned out to be 1.9 nM; in experiment [4], 490 nM; in experiment [5] it was 19100 nM; in experiment [6], 3220 nM.

With “anti-TIGIT mAb, human IgG1 S239D/A330L/I332E (DLE-TGT) (antibody; other documents disagree on this pair)”, the Kd turned out to be 3130 nM in experiment [5] and 1620 nM in experiment [6].

Regarding “nonfucosylated anti-TIGIT mAb, human IgG1 (SEA-TGT) (antibody)”, the Kd is 90 nM in experiment [1] and 3640 nM in experiment [2].

As to “Fc-muted anti-TIGIT mAb, human IgG1 L234A/L235A/P329G (LALA-TGT) (antibody; other documents disagree on this pair)”, the Kd in experiment [3] is 25500 nM.

The record behind these values is article PMC10654636.
